Data on 2 molecules can be found in article PMC12381204.

Broadly, the Kd is the constant that tells how readily two partners part at equilibrium.

The target in the data set is Nucleocapsid protein (N), unmodified (SARS-CoV-2, UniProt P0DTC9 2-419). In words: fluorescence polarization. The note with it: protein: recombinant, tags: N-terminal 6xHis-TEV site, cleaved by TEV (Gly left before S2), chain copies: 2, label: 5'-FAM. For orientation: Fluorescence polarisation rises when a labelled molecule tumbles more slowly, as on binding a larger partner.

Regarding CUGUGUGGCUGUCACUCGGCUGCAUGCUUAGUGCACUCACGCAG (structured_RNA) [SL4 RNA], the Kd (hairpin) came to 10.9 ± 1.4 nM. Take AAAAAAAAAAAAAAAAAAAAAAAAAAAAAA (ssRNA) [polyrA 30-mer]: the equilibrium dissociation constant (Kd) (single strand, unstructured) was 71.7 ± 0.8 nM.
